Consider four molecules from patent US20240285753A1 (DUKE UNIVERSITY, published 2024).

Assay [1] concerns the target T1, SARS-CoV-2 D614G spike on infected cells (SARS-CoV-2, UniProt P0DTC2 14-1273).
T1 construct: whole, on cells
Nature of the assay: flow cytometry on infected Vero E6 cells.

In another assay the target is T2, S2hlx-Ex6.
T2 construct: backbone grafting design
T2 chain: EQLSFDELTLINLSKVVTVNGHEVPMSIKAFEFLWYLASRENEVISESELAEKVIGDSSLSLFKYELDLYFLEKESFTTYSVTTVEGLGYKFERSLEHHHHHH
Kind of assay: ELISA, coated antigen, mAb titrated.

For assay [2], the target named is T1, SARS-CoV-2 D614G spike on infected cells. Nature of the assay: flow cytometry, infected cells, % infected cells bound.

B1: DH1501.1 (antibody, V domains shown)
VH: EVQLVESGAEVKKPGASVRVSCKASGFTFTDHYMHWVRQAPGQGLEWMGLINPTGVNTFYAQNFRGRVTMTRDTSTKTDYLEVRSLTSQDTAMYYCARMSRYGAFDIWGQGTMVTVSL
VL: EIVLTQSPGTLSLSPGERATLSCRASQSVGSGYLAWYQQKPGQAPRLLIYGASVRATGIPDRFSGSGSGTDFSLTINRVEPEDFAMYYCQNYGSSPPRYTFGQGTKLEIK
Regarding B1, the binding result in assay [1] is recorded as “binds”.

B2: DH1501.2 (antibody, V domains shown)
VH: EVQLVESGAEVKKPGASVRLSCKASGDTFNNKYVHWVRQAPGQGLEWMGLINPSGSGTAFAQKFQGRVSMTRDTSTRTVYLGLTSLTYEDTAVYYCARMSRAGTFDIWDQGTMVTVSS
VL: EIVLTQSPGTLSLSPGDRATLSCRASENVGTSYLAWYQQKPGQAPRLLISGTSSRATGVPDRFSGSGSGRDFTLTISRLEPEDFAVYYCQQYGSSPPRYTFGQGTKLDMK
As for B2, the binding result in assay [1] is reported as “binds”.

B3: S2P6 mAb (antibody, V domains shown)
VH: EVQLVQSGAEVKKPGASVKVSCKASGYTFTSQYMHWVRQAPGQGLEWIGIINPSGVHTSYAQKFQGRVTLTRDTSTSTLYMELSSLRSEDTAVYYCARGSPKGAFDYWGQGTLVTVSS
VL: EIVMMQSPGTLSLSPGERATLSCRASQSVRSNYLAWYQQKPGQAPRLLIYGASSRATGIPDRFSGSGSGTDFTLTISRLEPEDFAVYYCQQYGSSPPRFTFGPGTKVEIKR
B3: the “EC50 (read off the curve)” value in the assay with S2hlx-Ex6 was approximately 0.1 mg/L.

B4: DH1498 (antibody, V domains shown)
VH: QVQLQESGPGLVKPSETLSLTCAVSGGSVSSDTYYWSWIRQPPGKGLEWIGYIYNSGSTNYNPSLKSRVTISVDTSKSQFSLNLGSVTAADTAVYYCAREGAGTYPPKNDAFDIWGQGTLVTVSS
VL: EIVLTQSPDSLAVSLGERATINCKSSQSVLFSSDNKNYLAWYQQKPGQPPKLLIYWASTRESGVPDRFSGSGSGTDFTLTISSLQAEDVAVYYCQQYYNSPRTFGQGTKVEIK
Regarding B4, the binding result in assay [2] is “no binding (tested: 50 µg/mL)”.
